According to patent publication US20210395344A1 (TWIST BIOSCIENCE, published 2021):

B1: SARS-CoV-2 variant 1-23 (antibody, V domains shown)
VH: EVQLLESGGGLVQPGGSLRLSCAASGFTFSSYAISWVRQAPGKGLEWVSIISGSGGSTYYADSVKGRFTISRDNSKNTLYLQMNSLRAEDTAVYYCAREGYRDYLWYFDLWGQGTLVTVSS
VL: QSALTQPASVSGSPGQSITISCTGTSNDVGSYNLVSWYQQHPGKAPKLMIYEGNKRPSGVSNRFSGSKSGNTASLTISGLQAEDEADYYCCSYAGSYTVFGGGTKLTVL
B2: SARS-CoV-2 variant 1-38 (antibody, V domains shown)
VH: EVQLLESGGGLVQPGGSLRLSCAASGITFSSYAMSWVRQAPGKGLEWVSGISGSGGSTYYADSVKGRFTISRDNSKNTLYLQMNSLRAEDTAVYYCAKHGSGTIFGVVIAKYYFDYWGQGTLVTVSS
VL: QSALTQPASVSGSPGQSITISCTGTSSDIGSYNLVSWYQQHPGKAPKLMIYEGTKRPSGVSNRFSGSKSGNTASLTISGLQAEDEADYYCCSYAGSRTYVFGGGTKLTVL
B3: SARS-CoV-2 variant 1-37 (antibody, V domains shown)
VH: EVQLLESGGGLVQPGGSLRLSCAASGFTFTSYAMNWVRQAPGKGLEWVTAISGSGGSTFYADSVKGRFTISRDNSKNTLYLQMNSLRAEDTAVYYCTRPPYGDYGDYWGQGTLVTVSS
VL: QSALTQPASVSGSPGQSITISCTGTSSDIGSYNLVSWYQQHPGKAPKLMIYEGTKRPSGVSNRFSGSKSGNTASLTISGLQAEDEADYYCCSYAGSRTYVFGGGTKLTVL
B4: SARS-CoV-2 variant 2-15 (antibody, V domains shown)
VH: EVQLLESGGGLVQPGGSLRLSCAASGFTFSDFAMAWVRQAPGKGLEWVSAISGSGDITYYADSVKGRFTISRDNSKNTLYLQMNSLRAEDTAVYYCAREADGLHSPWHFDLWGQGTLVTVSS
VL: DIQMTQSPSSLSASVGDRVTITCRASQSIDNYLNWYQQKPGKAPKLLIYGVSALQSGVPSRFSGSGSGTDFTLTISSLQPEDFATYYCQQSHSAPLTFGQGTKVEIK
B5: SARS-CoV-2 variant 1-26 (antibody, V domains shown)
VH: EVQLLESGGGLVQPGGSLRLSCAASGFTFSSYAISWVRQAPGKGLEWVSAISGSGYSTYYADSVKGRFTISRDNSKNTLYLQMNSLRAEDTAVYYCARGAPDSSGYYFQGEVYFDYWGQGTLVTVSS
VL: QSALTQPASVSGSPGQSITISCTGTSSDVGGYNLVSWYQQHPGKAPKLMIYEGTKRPSGVSNRFSGSKSGNTASLTISGLQAEDEADYYCCSFVRSSAHVVFGGGTKLTVL
B6: SARS-CoV-2 variant 1-47 (antibody, V domains shown)
VH: EVQLLESGGGLVQPGGSLRLSCAASGFTFSSQAMSWVRQAPGKGLEWVSAISGSGGGTYYADSVKGRFTISRDNSKNTLYLQMNSLRAEDTAVYYCAKDRRFGEFDPWGQGTLVTVSS
VL: QSALTQPASVSGSPGQSITISCTGTSSGVGSYNLVSWYQQHPGKAPKLMIYEGIKRPSGVSNRFSGSKSGNTASLTISGLQAEDEADYYCCSYAGSSSFVVFGGGTKLTVL

Columns and labels:
Assay in all cases: phage ELISA
[1] = target: T1, SARS-CoV-2 S1 (subunit 1) protein (SARS-CoV-2, UniProt P0DTC2 16-685)
T1 construct: also called biotinylated SARS-CoV-2 S1

[2] = target: T2, COVID S1 RBD Fc fusion (Antigen 1) (SARS-CoV-2, UniProt P0DTC2 319-541)
T2 construct: domain: RBD

S1-Fc = S1-Fc (SARS-CoV-2, UniProt P0DTC2 16-685)
[3] = target: T3, COVID S1 RBM Fc fusion (Antigen 2) (SARS-CoV-2, UniProt P0DTC2 437-508)
T3 construct: domain: RBM

[4] = target: COVID S1 RBD Fc fusion (Antigen 1) (SARS-CoV-2, UniProt P0DTC2 319-541)
[5] = target: COVID S1 RBM Fc fusion (Antigen 2) (SARS-CoV-2, UniProt P0DTC2 437-508)

Binder | screening ELISA (Avg), fold over background [1] | specificity ELISA, fold over background [2] | specificity ELISA, percent binding relative to Acro S1 [2] | specificity ELISA, fold over background (S1-Fc) | specificity ELISA, percent binding relative to Acro S1 (S1-Fc) | specificity ELISA, fold over background [3] | specificity ELISA, percent binding relative to Acro S1 [3] | specificity ELISA, fold over background [4] | specificity ELISA, percent binding relative to Acro S1 [4] | specificity ELISA, fold over background [5] | specificity ELISA, percent binding relative to Acro S1 [5]
B1 | 23.1 fold over background | 3.6 fold over background | 70.9% | 1.6 fold over background | 31.1% | 1.6 fold over background | 32% |  |  |  | 
B2 | 20.2 fold over background | 1.5 fold over background | 128% | 0.9 fold over background | 82.8% | 1.2 fold over background | 101% |  |  |  | 
B3 | 27 fold over background | 2 fold over background | 17.7% | 5.4 fold over background | 46.7% | 1.4 fold over background | 12.3% |  |  |  | 
B4 |  |  |  |  |  |  |  | 28.1 fold over background | 90.6% | 0.9 fold over background | 3%
B5 | 19.5 fold over background | 1.1 fold over background | 76.8% | 1.3 fold over background | 98% | 1 fold over background | 74.7% |  |  |  | 
B6 | 22.6 fold over background | 5.5 fold over background | 68.9% |  |  | 0.9 fold over background | 11.1% |  |  |  | 
